We go through two substances from PMC6848142.

This series deals with KRAS wild type. Kind of series: MST. Conditions: MST: labeled protein 20 nM final in PBS, RNA diluted in deionized water and mixed 1:1; RNA folded in TE (70 C 5 min, then ice 15 min); pH and assay temperature ….

Take SNORD50A: the Kd (as a rule, the concentration at which binding is half-saturated) is 140 nM.

SNORD50B had an equilibrium dissociation constant (Kd) of 122 nM.
